Measurements from US10428140B2, “Anti-EphA4 antibody” (EISAI R&D MANAGEMENT CO., LTD., priority 2015, dated 2019).
Numbering of substitutions follows the chain as printed. Values joined by “and” are separate entries in the source; they are usually repeats but may differ in a detail not shown here. Equal values may be shown once.

B1: 73 (antibody, V domains shown)
VH: QIQLVQSGSELKKPGASVKVSCKASGYTFTDYSMHWVRQAPGQGLKWMGWINTETGEPTYADDFKGRFVFSLDTSVSTAYLQISSLKAEDTAVYYCARIPLYYYGSRYWYFDVWGQGTTVTVSS
VL: EIVMTQSPATLSVSPGERATLSCRASENIYRNLAWYQQKPGQSPRLLIYAATNLADGIPARFSGSGSGTEYTLTISSLQSEDFAVYYCQHFWGTPWTFGQGTKVEIK
modifications: synthetic humanized antibody heavy chain variable region sequence; synthetic humanized antibody light chain variable region sequence
B2: 141 (antibody, V domains shown)
VH: B1 VH with I2V, K46E
VL: DIQMTQSPSSLSASVGDRVTITCRASENIYRNLAWYQQKPGKAPKLLVYAATNLADGVPSRFSGSGSGTDYTLTISSLQPEDFATYYCQHFWGTPWTFGQGTKVEIK
modifications: synthetic humanized antibody heavy chain variable region sequence; synthetic humanized antibody light chain variable region sequence
B3: 157 (antibody, V domains shown)
VH: B1 VH with I2V, K46E, D62Q, D63G, K65T
VL: B2 VL with K45Q, V48L
modifications: synthetic humanized antibody heavy chain variable region sequence; synthetic humanized antibody light chain variable region sequence
B4: 140 (antibody, V domains shown)
VH: B1 VH with I2V, D62Q, D63G, K65T
VL: B2 VL
modifications: synthetic humanized antibody heavy chain variable region sequence; synthetic humanized antibody light chain variable region sequence
B5: 138 (antibody, V domains shown)
VH: B1 VH with D62Q, D63G, K65T
VL: B2 VL
modifications: synthetic humanized antibody heavy chain variable region sequence; synthetic humanized antibody light chain variable region sequence
B6: 145 (antibody, V domains shown)
VH: B1 VH with I2V
VL: B2 VL with V48L, P80S
modifications: synthetic humanized antibody heavy chain variable region sequence; synthetic humanized antibody light chain variable region sequence
B7: 142 (antibody, V domains shown)
VH: B1 VH with I2V
VL: B2 VL
modifications: synthetic humanized antibody heavy chain variable region sequence; synthetic humanized antibody light chain variable region sequence
B8: 139 (antibody)
VH: B1 VH with I2V, K46E, D62Q, D63G, K65T
VL: B2 VL
chain: ASTKGPSVFPLAPSSRSTSESTAALGCLVKDYFPEPVTVSWNSGALTSGVHTFPAVLQSSGLYSLSSVVTVPSSNFGTQTYTCNVDHKPSNTKVDKTVERKSCVECPPCPAPPAAAPSVFLFPPKPKDTLMISRTPEVTCVVVDVSHEDPEVQFNWYVDGVEVHNAKTKPREEQFNSTFRVVSVLTVVHQDWLNGKEYKCKVSNKGLPAPIEKTISKTKGQPREPQVYTLPPSREEMTKNQVSLTCLVKGFYPSDIAVEWESNGQPENNYKTTPPMLDSDGSFFLYSKLTVDKSRWQQGNVFSCSVMHEALHNHYTQKSLSLSPG
modifications: synthetic humanized antibody heavy chain variable region sequence; synthetic humanized antibody light chain variable region sequence; synthetic antibody constant region sequence
B9: 153 (antibody, V domains shown)
VH: B1 VH with I2V, D62Q, D63G, K65T
VL: B2 VL with V48L, P80S
modifications: synthetic humanized antibody heavy chain variable region sequence; synthetic humanized antibody light chain variable region sequence
B10: 143 (antibody, V domains shown)
VH: B1 VH
VL: B2 VL
modifications: synthetic humanized antibody heavy chain variable region sequence; synthetic humanized antibody light chain variable region sequence
B11: 151 (antibody, V domains shown)
VH: B1 VH with D62Q, D63G, K65T
VL: B2 VL with V48L, P80S
modifications: synthetic humanized antibody heavy chain variable region sequence; synthetic humanized antibody light chain variable region sequence
B12: 154 (antibody, V domains shown)
VH: B1 VH with I2V, K46E
VL: B2 VL with V48L, P80S
modifications: synthetic humanized antibody heavy chain variable region sequence; synthetic humanized antibody light chain variable region sequence
B13: 155 (antibody, V domains shown)
VH: B1 VH
VL: B2 VL with V48L, P80S
modifications: synthetic humanized antibody heavy chain variable region sequence; synthetic humanized antibody light chain variable region sequence
B14: 152 (antibody, V domains shown)
VH: B1 VH with I2V, K46E, D62Q, D63G, K65T
VL: B2 VL with V48L, P80S
modifications: synthetic humanized antibody heavy chain variable region sequence; synthetic humanized antibody light chain variable region sequence

Legend:
human EphA5 = molecular target: T1, human EphA5 (Homo sapiens, UniProt P54756); experiment: Selectivity ELISA of humanized antibodies for human Eph receptor; assay type: binding; settings: coated protein 1 nM
T1 construct: a protein of the extracellular region of each human Eph receptor fused with the SEAP protein and the His tag; made in house; host or cells: Expi293F cells (culture supernatant)
T1 sequence (P54756 25-573 limits assumed): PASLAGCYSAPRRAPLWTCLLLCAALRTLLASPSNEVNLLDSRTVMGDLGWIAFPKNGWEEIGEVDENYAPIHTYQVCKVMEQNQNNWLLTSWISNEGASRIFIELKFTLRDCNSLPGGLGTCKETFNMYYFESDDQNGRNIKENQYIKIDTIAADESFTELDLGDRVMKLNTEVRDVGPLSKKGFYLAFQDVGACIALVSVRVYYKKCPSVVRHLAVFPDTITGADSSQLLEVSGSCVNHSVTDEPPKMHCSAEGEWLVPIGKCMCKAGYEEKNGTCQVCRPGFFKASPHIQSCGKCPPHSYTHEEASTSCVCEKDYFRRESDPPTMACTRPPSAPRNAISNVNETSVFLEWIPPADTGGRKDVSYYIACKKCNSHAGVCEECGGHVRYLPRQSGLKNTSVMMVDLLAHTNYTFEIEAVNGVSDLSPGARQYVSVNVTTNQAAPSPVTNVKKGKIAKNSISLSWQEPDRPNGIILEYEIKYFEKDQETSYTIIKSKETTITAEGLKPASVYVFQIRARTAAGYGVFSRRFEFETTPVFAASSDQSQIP
Summary of the method: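 Read-out is A450 after TMB development stopped with 1N H2SO4. Plates bore anti-His-captured human Eph extracellular region-SEAP-His proteins at 1 nM final, made in Expi293F cells. Humanized antibody binding ran 1 h at room temperature before HRP-labeled anti-IgG detection.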

[1] = molecular target: T2, human EphA4 (binding to human Ephrin A5) (Homo sapiens, UniProt P54764); experiment: Human EphA4-human ligand binding inhibition ELISA of humanized antibodies (biotinylated Ephrin A5-Fc); settings: biotinylated human Ephrin A5-Fc 0.7 nM
T2 construct: made in house; not restated for the human SEAP-His protein
T2 sequence (P54764 20-547): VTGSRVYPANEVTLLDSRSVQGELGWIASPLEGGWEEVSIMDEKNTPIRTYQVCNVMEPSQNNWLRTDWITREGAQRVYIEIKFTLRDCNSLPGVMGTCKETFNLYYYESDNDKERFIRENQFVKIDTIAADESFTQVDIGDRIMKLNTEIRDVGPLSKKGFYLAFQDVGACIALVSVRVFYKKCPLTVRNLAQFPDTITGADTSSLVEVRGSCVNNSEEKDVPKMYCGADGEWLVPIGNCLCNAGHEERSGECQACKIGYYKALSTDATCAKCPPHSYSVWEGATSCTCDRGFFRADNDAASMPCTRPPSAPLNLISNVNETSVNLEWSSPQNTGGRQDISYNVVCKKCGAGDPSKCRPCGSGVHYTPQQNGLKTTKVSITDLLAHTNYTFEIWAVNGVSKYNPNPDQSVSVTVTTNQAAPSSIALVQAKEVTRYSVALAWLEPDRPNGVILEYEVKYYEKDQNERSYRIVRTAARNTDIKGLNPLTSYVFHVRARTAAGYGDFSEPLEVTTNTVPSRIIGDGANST
Summary of the method: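 Wells coated with anti-alkaline phosphatase antibody captured human EphA4 extracellular region-SEAP-His at 10 nM. Biotinylated human Ephrin A5-Fc (0.7 nM) and serially diluted humanized antibody (0-3000 nM) were added together for 1 h at room temperature. Bound ligand was detected with HRP-streptavidin and TMBZ at A450.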

human EphA4 = molecular target: T3, human EphA4 (Homo sapiens, UniProt P54764); experiment: Affinity of humanized antibodies by SPR (Biacore T200); assay type: binding; settings: human EphA4 extracellular region-SEAP-His; for ka / kd: 1:1 binding model; for Kd: KD=kd/ka
T3 construct: made in house; not restated for the human SEAP-His protein
T3 sequence (P54764 20-547): as above
Summary of the method: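 Humanized antibodies captured on protein A chip (antibody A via immobilized rat anti-mouse IgG1) at about 30 to 60 RU in HBS-EP; human EphA4 extracellular region-SEAP-His injected single-cycle at 0.6 to 50 nM, 120 s association, 900 s dissociation. KD = kd/ka from 1:1 binding fits.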

| hEphA5-SEAP-: absorbance at 450 nm, percentage with respect to hEphA4-SEAP-His as 100% (human EphA5) [%] | IC50 [1] [nM] | ka (human EphA4) | kd (human EphA4) | Kd (human EphA4) | Molecule |
| --- | --- | --- | --- | --- | --- |
| 6.0 | 2.4 | 290000 M⁻¹ s⁻¹ | 0.00027 s⁻¹ | 0.93 nM | B1 |
| 5.3 | 3 | 390000 M⁻¹ s⁻¹ | 0.00062 s⁻¹ | 1.6 nM | B2 |
| 6.1 | 2.6 | 350000 M⁻¹ s⁻¹ | 0.00068 s⁻¹ | 2 nM | B3 |
| 5.4 | 2.4 | 320000 M⁻¹ s⁻¹ | 0.00043 s⁻¹ | 1.4 nM | B4 |
| 5.1 | 2.9 | 330000 M⁻¹ s⁻¹ and 290000 M⁻¹ s⁻¹ | 0.00043 s⁻¹ and 0.00039 s⁻¹ | 1.3 nM and 1.4 nM | B5 |
| 6.6 | 3.7 | 330000 M⁻¹ s⁻¹ | 0.00065 s⁻¹ | 2 nM | B6 |
| 5.7 | 3.7 | 340000 M⁻¹ s⁻¹ | 0.0005 s⁻¹ | 1.5 nM | B7 |
| 5.7 | 3.3 | 370000 M⁻¹ s⁻¹ | 0.00053 s⁻¹ | 1.4 nM | B8 |
| 6.1 | 2.3 | 290000 M⁻¹ s⁻¹ | 0.0006 s⁻¹ | 2.1 nM | B9 |
| 6.1 | 5.3 | 350000 M⁻¹ s⁻¹ | 0.00051 s⁻¹ | 1.5 nM | B10 |
| 7.0 | 2 | 320000 M⁻¹ s⁻¹ | 0.00053 s⁻¹ | 1.7 nM | B11 |
| 6.3 | 2.5 | 390000 M⁻¹ s⁻¹ | 0.00065 s⁻¹ | 2.2 nM | B12 |
| 5.6 | 2.4 | 330000 M⁻¹ s⁻¹ | 0.00064 s⁻¹ | 1.9 nM | B13 |
| 5.8 | 2 | 400000 M⁻¹ s⁻¹ | 0.00082 s⁻¹ | 2 nM | B14 |
